According to article PMC5971433:

Tests used:
[1] = target: MtrAB (native, the MtrAB component of the MtrCAB complex) (Shewanella oneidensis MR-1); experiment: small-angle neutron scattering (SANS); co-purified native MtrCAB at 3.5 and 9.7 mg/ml in 20 mM HEPES pH 7.8, 100 mM NaCl, 2.8 mM Fos-choline-12, 13% D2O (detergent contrast-matched); molecular mass from I(0), ab initio envelope
[2] = target: MtrCAB porin–cytochrome complex (Shewanella oneidensis MR-1)

stoichiometry N [1] | rate of electron transfer from STC internalised in MtrCAB proteoliposomes to external Fe(III) citrate (absorbance at 550 nm) (nM electrons s^-1) [2] | rate of electron transfer from external sodium dithionite to STC internalised in MtrCAB proteoliposomes (absorbance at 550 nm) (nM electrons s^-1) [2] | Substance
1 | – | – | MtrC (native, from the MtrCAB complex) (natural protein)
– | 61 | 140 | small tetraheme cytochrome (STC) (natural protein)
